We go through 1 molecule from publication PMC11242853, “The Antimicrobial Activity of Human Defensins at Physiological Non-Permeabilizing Concentrations Is Caused by the Inhibition of the Plasma Membrane H^+-ATPases” (International Journal of Molecular Sciences, 2024).

In assay [1] the test system is Lactococcus lactis subsp. lactis (strain IL1403). Put plainly: Antimicrobial spread-plate (CFU) killing assay, fermenting L. lactis. Format: cell-based. The note with it: human lactoferrin 0.062 µM; fermentative conditions; relative to untreated control. On the procedure:
Microbial susceptibility to the peptides was determined in a spread-plate assay as described previously. Briefly, cell suspensions (10^6 cells/mL) in Tris buffer (10 mM Tris-HCl, pH 7.4) were incubated for 90 min at 37 °C with 2-fold serial peptide dilutions. Peptide concentrations ranged from 0 to 2 μM. After incubation, the number of viable cells was determined by plating aliquots (100 μL) in duplicate on plates (SDA for C. albicans, TSA for P. aeruginosa, and M17G agarified medium for L. lactis) that had been dried for 30 min at room temperature in a laminar flow hood. Plates were incubated for 24–48 h at 30 °C (C. albicans and L. lactis) or 24 h at 37 °C (P. aeruginosa). Dilutions yielding 50–200 colonies were counted. Cell viability values, expressed as colony-forming units (CFUs), were calculated relative to the incubation without added peptides and represent the means ± standard deviation (SD) from duplicates of three independent experiments. For inhibition assays, unless otherwise noted, cell suspensions were preincubated (15 min at 37 °C) with the appropriate inhibitor prior to the addition of peptides, but the inhibitor was present throughout the incubation period with the peptide (90 min at 37 °C). Other specific experimental conditions are described as appropriate. […]

Assay [2] deals with C. albicans cells. Put plainly: Extracellular potassium measurement (K+-efflux, ICP-MS). Format: cell-based, Candida albicans. The conditions noted are these: peptides at NPIC / microbicidal concentrations; 10^7 cells/mL, 90 min at 37 °C; steady state compared with maximum intracellular K+ of untreated cells. Here is the method: Potassium measurements were performed via inductively coupled plasma mass spectrometry using an Agilent 7700x ICP-MS (Agilent Technologies, Santa Clara, CA, USA). C. albicans cells were cultured in SDB for 16–20 h at 30 °C. The cells were then subcultured in the same media to the mid-logarithmic growth phase and rapidly washed in sterile, deionized, double-distilled water. The cells (10^7 cells/mL) were immediately incubated with the peptides (NPIC) for 90 min at 37 °C. The tubes were centrifuged at 1100× g for 10 min and the supernatants were collected and stored at 4 °C until analysis. The percentage of cytosolic potassium released from cell suspensions treated with nystatin (50 μM) was determined in positive control assays. Total cellular K^+-content (100% value) was measured in the supernatant of cell suspensions previously treated with 0.5% (v/v) HClO4 alone, heated for 1 h at 95 °C, and centrifuged to remove cell debris. Results are expressed as the percentage (means ± SD) of K^+-release relative to the total cellular K^+-content from duplicates of at least three independent assays.

For assay [3], the system named is C. albicans cells. As to the kind of experiment: Total cellular ATP (BacTiter-Glo). The assay is classed as cell-based, Candida albicans. The note with it: defensins at NPIC, human lactoferrin 5 μM, BM2 peptide 0.25 μM; 10^6 cells/mL; BacTiter-Glo luminescence. On the procedure: Total ATP was measured using the BacTiter-Glo^TM Microbial Cell Viability Assay (Promega Co., Madison, WI, USA) according to the manufacturer’s instructions. […] Aliquots (100 µL) were incubated (90 min at 37 °C) with human defensins (NPICs). Human lactoferrin (5 μM) or BM2 peptide (0.25 μM) was used as positive controls. One hundred microliters of the incubation mixture was transferred to an opaque 96-well plate, mixed with an equal volume of BacTiter-Glo^TM reagent, and incubated for 15 min in the dark. The reagent uses a thermostable luciferase to generate luminescence in an ATP-dependent manner. The emitted luminescence was detected using a Varioskan Flash multimode reader (Thermo Scientific, Waltham, MA, USA) with a 10 s shaking and 1 s integration time. A calibration curve was generated for each experiment with ATP standards ranging from 1 to 1000 nM. All assays were performed at least three times in duplicate.

On the set-up of assay [4]: method as in 19 sources, ref 24; PMID 3290255; doi:10.1172/JCI113527; 24. Lehrer R.I. Ganz T. Szklarek D. Selsted M.E. Modulation of the in vitro candidacidal activity of human neutrophil defensins by target cell metabolism and divalent cations J. Clin. Invest. 1988 81 || [47]; PMID 11083633; doi:10.1128/AAC.44.12.3310-3316.2000; 47. Edgerton M. Koshlukova S.E. Araujo M.W. Patel R.C. Dong J. Bruenn J.A. Salivary histatin 5 and human neutrophil defensin 1 kill Candida albicans via shared pathways Antimicrob. Agents Chemother. 2 ||| ref 20 = [20]; PMID 17074797; doi:10.1128/AAC.00478-06; 20. Vylkova S. Nayyar N. Li W. Edgerton M. Human beta-defensins kill Candida albicans in an energy-dependent and salt-sensitive manner without causing membrane disruption Antimicrob. Agents Chemother. ||| ref 24, 62 (HNP-1); 62, 63 (HNP-4); 20 (hBD-2); 12, 20 (hBD-3); 34, 35, 64 cidal and 65, 66 static (lactoferrin) ||| ref 26 (HNP-1); 12 (HNP-4); 11 (hBD-2, hBD-3); 43, 67 (lactoferrin) ||| ref 14 (HNP-1); 23 (HNP-4); Yes 11, 13 / No 20 (hBD-2); No 20 / Yes 11 (hBD-3); 31, 34, 42 (lactoferrin) ||| ... The note with it: Table 2, cited from earlier work.

B1: human lactoferrin: Recombinant human apo-lactoferrin (hLf), 691 amino acid γ-core protein that inhibits microbial PM H+-ATPases; control (protein, UniProt P02788 20-710, looked up)
Lactotransferrin: GRRRSVQWCAVSQPEATKCFQWQRNMRKVRGPPVSCIKRDSPIQCIQAIAENRADAVTLDGGFIYEAGLAPYKLRPVAAEVYGTERQPRTHYYAVAVVKKGGSFQLNELQGLKSCHTGLRRTAGWNVPIGTLRPFLNWTGPPEPIEAAVARFFSASCVPGADKGQFPNLCRLCAGTGENKCAFSSQEPYFSYSGAFKCLRDGAGDVAFIRESTVFEDLSDEAERDEYELLCPDNTRKPVDKFKDCHLARVPSHAVVARSVNGKEDAIWNLLRQAQEKFGKDKSPKFQLFGSPSGQKDLLFKDSAIGFSRVPPRIDSGLYLGSGYFTAIQNLRKSEEEVAARRARVVWCAVGEQELRKCNQWSGLSEGSVTCSSASTTEDCIALVLKGEADAMSLDGGYVYTAGKCGLVPVLAENYKSQQSSDPDPNCVDRPVEGYLAVAVVRRSDTSLTWNSVKGKKSCHTAVDRTAGWNIPMGLLFNQTGSCKFDEYFSQSCAPGSDPRSNLCALCIGDEQGENKCVPNSNERYYGYTGAFRCLAENAGDVAFVKDVTVLQNTDGNNNEAWAKDLKLADFALLCLDGKRKPVTEARSCHLAMAPNHAVVSRMDKVERLKQVLLHQQAKFGRNGSDCPDKFCLFQSETKNLLFNDNTECLARLHGKTTYEKYLGPQYVAGITNLKKCSTSPLLEACEFLRK
modifications: apo form
notes: control
In the case of B1, the “cell viability of L. lactis” value in assay [1] is given as 13% ± 5%. Further, the “K^+-efflux pattern in C. albicans” value with C. albicans cells [2] was “partial K^+-efflux”. In addition, the “increase in ATP levels compared to the untreated control” value in the assay with C. albicans cells [3] is ~ 6 fold. Also, the “Cell death inhibitors, intracellular: Azide” value in assay [4] (24 (HNP-1), 20 (hBD-2, hBD-3), 34 (lactoferrin)) is listed as “No”. For the same molecule, in assay [4] (Gm+ Gram-positive bacteria, Gm− Gram-negative bacteria, F fungi, V viruses, P protozoa, no reference given), the Antimicrobial range result was “Gm +,Gm −,F,V,P”. Besides, in assay [4], the “Cell death inhibitors, extracellular: Tok1p inhibitors (TEA)” value is recorded as “Yes”; the “Cell death inhibitors, intracellular: Oligomycin A” value was “Yes”; the “Cell death inhibitors, intracellular: Piericidin A” value is recorded as “Yes”; the “Partial K^+-efflux” value was “Yes”. In addition, in assay [4] (ref 14 (HNP-1), 23 (HNP-4), Yes 11, 13 / No 20 (hBD-2), No 20 / Yes 11 (hBD-3), 31, 34, 42 (lactoferrin)), the Membrane permeabilization result is recorded as “No”. Moreover, in assay [4] (ref 24 (HNP-1), 20 (hBD-2, hBD-3), 43 (lactoferrin)), the “Cell death inhibitors, extracellular: Ca^2+ or Mg^2+” value is listed as “Yes”. The “Cell death inhibitors, intracellular: CCCP or DNP” value in assay [4] (ref 24 (HNP-1), 34 (lactoferrin)) is reported as “Yes”. Moreover, the “Cell death inhibitors, extracellular: Anoxia” value in assay [4] (ref 24 (HNP-1), 34, 35 (lactoferrin)) is “Yes”. Further, the Membrane depolarization result in assay [4] (ref 26 (HNP-1), 12 (HNP-4), 11 (hBD-2, hBD-3), 43, 67 (lactoferrin)) is listed as “Yes”. For the same molecule, in assay [4] (ref 47 (HNP-1), 35 (lactoferrin)), the ATP increment entry is “Yes”. Moreover, the “Cell death inhibitors, extracellular: K^+ or Na^+” value in assay [4] (ref 68 (HNP-1), 69 (HNP-4), 20 (hBD-2), No 11, 12 / Yes 20 (hBD-3), 31, 36, 43 (lactoferrin)) is listed as “Yes”.
